For one molecule, Fold diff results are on record in patent US20220332804A1 (CSL INNOVATION, published 2022).

What all share (test): SPR, KD relative to WT C2;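 note: biacore SPR at 37 °C, anti-C2 mAbs captured on anti-human IgG chips with alanine or serine point mutants of C2 as analyte, KD from 1:1 fit compared with wild-type C2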
A general note: In SPR one partner is held on a chip, and binding of the other changes the refractive index at the surface.

The target of one assay is T1, human C2 E686A (human, UniProt P06681 21-752).
T1 sequence: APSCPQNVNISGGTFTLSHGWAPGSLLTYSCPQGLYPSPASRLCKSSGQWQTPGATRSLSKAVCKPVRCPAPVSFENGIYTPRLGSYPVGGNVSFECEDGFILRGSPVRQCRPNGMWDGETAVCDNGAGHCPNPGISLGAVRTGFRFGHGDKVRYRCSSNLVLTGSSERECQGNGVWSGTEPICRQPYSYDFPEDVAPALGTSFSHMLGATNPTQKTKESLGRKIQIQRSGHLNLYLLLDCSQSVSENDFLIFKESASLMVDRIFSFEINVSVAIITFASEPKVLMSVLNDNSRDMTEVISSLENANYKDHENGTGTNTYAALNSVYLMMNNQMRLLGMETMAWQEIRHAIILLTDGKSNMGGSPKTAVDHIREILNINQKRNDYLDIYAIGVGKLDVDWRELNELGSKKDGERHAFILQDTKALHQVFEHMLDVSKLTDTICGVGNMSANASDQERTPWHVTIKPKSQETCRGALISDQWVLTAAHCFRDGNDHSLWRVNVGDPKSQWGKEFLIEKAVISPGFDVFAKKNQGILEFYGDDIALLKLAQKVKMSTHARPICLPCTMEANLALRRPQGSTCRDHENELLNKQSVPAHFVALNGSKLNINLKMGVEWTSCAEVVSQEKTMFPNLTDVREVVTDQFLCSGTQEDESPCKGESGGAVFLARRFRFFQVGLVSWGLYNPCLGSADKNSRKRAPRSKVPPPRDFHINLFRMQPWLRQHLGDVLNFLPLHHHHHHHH

A further assay addresses T2, human C2 T317A (human, UniProt P06681 21-752).
T2 sequence: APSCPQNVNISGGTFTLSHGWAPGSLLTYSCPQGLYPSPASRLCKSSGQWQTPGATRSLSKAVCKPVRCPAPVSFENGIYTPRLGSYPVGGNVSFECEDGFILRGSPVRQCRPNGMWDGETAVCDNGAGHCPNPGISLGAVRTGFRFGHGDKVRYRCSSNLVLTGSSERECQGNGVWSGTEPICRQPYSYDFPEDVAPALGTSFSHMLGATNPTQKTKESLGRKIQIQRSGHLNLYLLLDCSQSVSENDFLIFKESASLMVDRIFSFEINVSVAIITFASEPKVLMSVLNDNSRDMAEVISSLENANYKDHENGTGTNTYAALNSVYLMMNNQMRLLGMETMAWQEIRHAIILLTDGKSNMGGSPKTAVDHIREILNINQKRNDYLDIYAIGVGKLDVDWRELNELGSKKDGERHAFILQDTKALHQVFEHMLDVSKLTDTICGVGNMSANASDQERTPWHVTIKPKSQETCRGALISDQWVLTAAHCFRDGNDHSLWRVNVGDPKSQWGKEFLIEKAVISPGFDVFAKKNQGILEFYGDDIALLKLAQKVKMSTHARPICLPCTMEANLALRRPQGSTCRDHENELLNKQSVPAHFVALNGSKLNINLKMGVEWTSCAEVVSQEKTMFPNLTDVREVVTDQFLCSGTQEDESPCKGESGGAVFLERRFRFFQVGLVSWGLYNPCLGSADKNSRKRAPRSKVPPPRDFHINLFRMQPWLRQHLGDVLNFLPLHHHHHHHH

For another assay, the target named is T3, human C2 N327A (human, UniProt P06681 21-752).
T3 sequence: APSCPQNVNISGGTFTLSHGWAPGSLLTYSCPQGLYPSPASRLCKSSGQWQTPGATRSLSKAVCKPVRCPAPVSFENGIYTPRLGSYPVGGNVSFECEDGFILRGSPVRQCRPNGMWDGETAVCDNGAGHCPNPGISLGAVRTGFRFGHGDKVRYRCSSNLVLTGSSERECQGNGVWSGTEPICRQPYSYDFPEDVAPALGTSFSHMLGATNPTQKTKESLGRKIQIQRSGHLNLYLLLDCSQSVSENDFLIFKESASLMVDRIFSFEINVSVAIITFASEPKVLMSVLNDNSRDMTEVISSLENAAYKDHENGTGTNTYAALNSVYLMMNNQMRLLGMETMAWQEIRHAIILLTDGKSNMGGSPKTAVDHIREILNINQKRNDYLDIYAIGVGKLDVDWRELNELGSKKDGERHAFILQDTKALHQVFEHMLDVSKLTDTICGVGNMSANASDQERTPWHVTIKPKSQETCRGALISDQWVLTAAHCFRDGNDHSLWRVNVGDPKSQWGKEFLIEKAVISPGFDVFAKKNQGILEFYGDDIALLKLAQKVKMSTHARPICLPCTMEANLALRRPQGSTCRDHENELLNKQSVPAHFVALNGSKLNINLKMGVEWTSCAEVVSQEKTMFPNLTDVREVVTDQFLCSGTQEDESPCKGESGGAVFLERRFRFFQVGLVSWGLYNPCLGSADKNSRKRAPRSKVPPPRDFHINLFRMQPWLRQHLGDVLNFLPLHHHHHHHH

In the next assay the target is T4, human C2 E324A (human, UniProt P06681 21-752).
T4 sequence: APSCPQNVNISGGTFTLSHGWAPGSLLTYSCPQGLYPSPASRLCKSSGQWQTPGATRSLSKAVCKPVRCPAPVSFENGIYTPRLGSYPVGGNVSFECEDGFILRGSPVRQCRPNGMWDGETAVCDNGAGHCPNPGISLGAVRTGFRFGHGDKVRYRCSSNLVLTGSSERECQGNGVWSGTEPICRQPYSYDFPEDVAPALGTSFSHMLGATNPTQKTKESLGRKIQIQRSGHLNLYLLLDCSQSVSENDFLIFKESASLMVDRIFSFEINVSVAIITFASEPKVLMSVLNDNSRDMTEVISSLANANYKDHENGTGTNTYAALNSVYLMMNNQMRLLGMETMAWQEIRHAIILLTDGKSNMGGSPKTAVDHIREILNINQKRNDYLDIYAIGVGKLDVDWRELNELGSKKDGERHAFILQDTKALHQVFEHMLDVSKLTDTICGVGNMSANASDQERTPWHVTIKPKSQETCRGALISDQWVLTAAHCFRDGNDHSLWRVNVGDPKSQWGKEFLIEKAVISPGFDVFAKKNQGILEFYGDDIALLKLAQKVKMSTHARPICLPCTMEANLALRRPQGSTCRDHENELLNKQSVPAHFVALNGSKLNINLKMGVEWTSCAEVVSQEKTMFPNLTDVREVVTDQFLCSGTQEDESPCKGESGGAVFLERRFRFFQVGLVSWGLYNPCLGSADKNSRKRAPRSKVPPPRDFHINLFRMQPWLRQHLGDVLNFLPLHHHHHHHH

B1: RF16-242 (antibody, human IgG4 S228P, lambda, V domains shown)
VH: EVQLLQSGAEVKKPGESLKISCKGSGYSFTSYWIGWVRQMPGKGLEWMGIIYPGDSDTRYSPSFQGQVTISADKSISTAYLQWSSLKASDTAMYYCARRGHYGDYFDYWGQGTLVTVSS
VL: SYELTQPPSVSVSPGQTARITCSGDALPKKYAYWYHQKSGQAPVLVIYEDRRRPSEIPERFSGSSSGTMATLTITGAQVEDEGVYFCYSRDRAGNQRVFGGGTQLTVLG
notes: pH-dependent anti-C2 antibody from a phage display library
B1: the Fold diff with human C2 E686A came out at 5 fold; with human C2 T317A, 1 fold; with human C2 N327A, 5 fold; with human C2 E324A, 2 fold.
